Reference: patent US20040167074A1, “Therapeutic applications of mFLINT polypeptides” (priority 1998, published 2004)

Assays:
[1] = tested on: Mouse T cell hybridoma cells (LTT cells); test: Murine FasL-mediated apoptosis of LTT cells (MTS cytotoxicity assay); type: cell-based; conditions: test agent 1 μg/ml
Experimental: (§1) LTT,2,14,11 cells (LTT cells), see Glasebrook, Eur.J.Immunol. 17: 1561-65 (1987), were used in this Annexin V assay. On the first day, a 96 well plate was coated with anti-CD3 (2C11) at a serial dilutions. On the second day, 100,000 LTT cells were added, in 50 μl of medium per well, along with 50 μl of medium to the control wells and 50 μl of medium containing:
The same steps as in Example 16 were followed on Day 1 and Day 2. On Day 3 20 ul of MTS solution (Promega) was added to the cells which were then incubated at 37° C. for 2 hours. Using a plate reader, the absorbances at 490 nm wavelength were collected.

[2] = tested on: Mouse T cell hybridoma cells (LTT cells); test: Murine FasL-mediated apoptosis of LTT cells (Annexin V assay); type: cell-based; conditions: test agent 1 μg/ml
Experimental: as §1
Group 1. solubleFas (sFas)(FasFc, mouse), with a final concentration of 1 μg/ml
Group 2. mFLINT (human), with a final concentration of 1 ug/ml
Group 3. anti-FasL (mouse), with a final concentration of 1 ug/ml.
These then were incubated overnight, at 37° C., in 5% CO2;
On the following day (Day 3), the cells were collected from each well, washed and labeled with Annexin V and PI, following Flow cytometry analysis.

osteoclasts = test: Porcine osteoclast differentiation assay (TRAP staining); type: cell-based, pig; conditions: mean and standard error of 6 wells
Source text: Neonatal pigs (aged 1-5 days) were euthanized with CO2, the appendages were rinsed with 70% ethanol, the soft tissues were removed, and the humeri, radii, ulnae, femora, tibiae and fibulae were excised. The long bones were placed in ice-cold calcium and magnesium-free Hank's balanced salt solution (CMF-HBSS, Gibco BRL) and cleaned of all soft tissues. The bones were split longitudinally and the endosteal surfaces were scraped to remove both the marrow and trabecular bone. The suspension of trabecular bone particles and marrow cells was agitated by vigorous shaking and passed through a […] and then […] sieve. Cells were centrifuged at 500×g for 10 minutes at 4° C., the pellet was resuspended in CMF-HBSS, and then separated on a Ficoll-Paque gradient (Pharmacia, Piscataway, N.J.). The mononuclear cell fraction from the gradient was washed twice in CMF-HBSS and passed through a […] sieve. The cells were suspended in growth medium consisting of a-MEM (pH 7.2, which was modified to contain 8.3 mM NaHCO3 (Gibco BRL, Grand Island, N.Y.)), 10% heat-inactivated fetal bovine serum (FBS, Hyclone, Logan, Utah) and 2% antibiotic/antimycotic solution (Gibco BRL, Grand Island, N.Y.) and seeded onto tissue culture dishes at a density of 1×10^6 cells/cm^2. A typical marrow cell yield was between 1-2×10^9 cells/animal, which varied with the size of the animal. The cells were incubated at 37° C. in a humid incubator with 5% CO2. […] Following 5 days of culture, the cells were fixed with formalin (3.7% for 10 min) and then stained for tartrate-resistant acid phosphatase (TRAP) as in Example 6. The number of osteoclasts (TRAP-positive cells containing 3 or more nuclei) was quantitated.

TNFα = biological target: T1, TNFα (Homo sapiens, UniProt P01375); test: Dot blot binding of mFLINT to TNF ligands
T1 construct: purchased
T1 sequence (P01375 77-233 limits assumed, species assumed): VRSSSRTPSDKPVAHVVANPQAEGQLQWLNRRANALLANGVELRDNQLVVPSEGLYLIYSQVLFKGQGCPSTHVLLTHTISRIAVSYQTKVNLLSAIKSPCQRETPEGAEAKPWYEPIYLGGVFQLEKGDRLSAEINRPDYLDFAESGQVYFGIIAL

BALB/c mice = test: LPS/galactosamine liver damage and sepsis model, survival; type: in vivo, mouse; conditions: for survival of mice: FIG. 5, mFLINT 200 μg i.v.
Experimental: Specifically, the activity of the polypeptides of the present invention against acute inflammation and apoptosis was determined using the following procedure. Briefly, BALB/c mice (Harlan) per each experimental group were given intravenous injections (the lateral tail vein) of 6 mg of D(+)-Galactosamine (Sigma, 39F-0539) in 100 μl of PBS (GIBCO-BRL) and 3 μg of Lipopolysaccharide B E. coli 026:B6 (LPS) (Difco, 3920-25-2) in 100 μl of PBS. The LPS was administered, via i.v. injection, 5 minutes after the galactosamine, which was administered i.v. […] C. F. et al J. Immunol. 1989. 142: 3884), and Anti-mouse Fas Ligand (500 μg, PharMingen, M024301) at 0, 2, 4, 6 hour-point respectively. The survival rates of the mice were determined 24 and 48 hours after LPS injection.

CD40 L = biological target: T2, CD40 L (Homo sapiens, UniProt P29965); test: Dot blot binding of mFLINT to TNF ligands
T2 construct: purchased
T2 sequence (P29965 113-261 limits assumed): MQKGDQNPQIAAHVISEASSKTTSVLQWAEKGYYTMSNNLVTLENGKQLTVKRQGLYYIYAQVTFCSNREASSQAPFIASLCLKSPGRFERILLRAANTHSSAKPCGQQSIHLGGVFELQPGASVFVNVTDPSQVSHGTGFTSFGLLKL

B1: mFLINT: mature FLINT without leader peptide (FIG. 3), soluble TNFR superfamily member, made according to Examples 8 and 9 (protein)
chain: VAETPTYPWRDAETGERLVCAQCPPGTFVQRPCRRDSPTTCGPCPPRHYTQFWNYLERCRYCNVLCGEREEEARACHATHNRACRCRTGFFAHAGFCLEHASCPPGAGVIAPGTPSQNTQCQPCPPGTFSASSSSSEQCQPHRNCTALGLALNVPGSSSHDTLCTSCTGFPLSTRVPGAEECERAVIDFVAFQDISIKRLQRLLQALEAPEGWGPTPRAGRAALQLKLRRRLTELLGAQDGALLVRLLQALRVARMPGLERSVRERFLPVH
modifications: glycosylated
MTS absorbance at 490 nm ([1]; Anti CD3 conc. 0 μg/ml): 1.691 | MTS absorbance at 490 nm ([1]; Anti CD3 conc. 0.0014 μg/ml): 1.923 | MTS absorbance at 490 nm ([1]; Anti CD3 conc. 0.004 μg/ml): 1.982 | MTS absorbance at 490 nm ([1]; Anti CD3 conc. 0.012 μg/ml): 2.006 | MTS absorbance at 490 nm ([1]; Anti CD3 conc. 0.037 μg/ml): 2.006 | MTS absorbance at 490 nm ([1]; Anti CD3 conc. 0.11 μg/ml): 1.874 | MTS absorbance at 490 nm ([1]; Anti CD3 conc. 0.33 μg/ml): 1.671 | MTS absorbance at 490 nm ([1]; Anti CD3 conc. 1 μg/ml): 1.581 | % Annexin V Positive ([2]; Anti CD3 0): 26.47% | % Annexin V Positive ([2]; Anti CD3 0.11): 33.24% | % Annexin V Positive ([2]; Anti CD3 0.33): 35.89% | % Annexin V Positive ([2]; Anti CD3 1): 34.41% | Osteoclasts/well (osteoclasts; FLINT 0.01 ng/ml, control 214.83): 68.83 ± 6.28 Osteoclasts/well | Osteoclasts/well (osteoclasts; FLINT 0.10 ng/ml): 176.17 ± 23.01 Osteoclasts/well | Osteoclasts/well (osteoclasts; FLINT 1.00 ng/ml): 228.50 ± 17.26 Osteoclasts/well | Osteoclasts/well (osteoclasts; FLINT 10.00 ng/ml): 228.50 ± 29.29 Osteoclasts/well | Osteoclasts/well (osteoclasts; FLINT 100.00 ng/ml): 382.33 ± 26.59 Osteoclasts/well | binding in dot blot (TNFα): No appreciable binding | survival of mice (BALB/c mice; administered 2 hours before LPS/GalN): 100% | survival of mice (BALB/c mice; administered 4 hours after LPS/GalN, survival at 48 hours): 80% | animals survived to 48 hours (BALB/c mice; FIG. 6, 50 ug mFLINT): about 70% | animals alive 48 hours after LPS/GalN (BALB/c mice; FIG. 6, 400 ug i.p., 2 hours before LPS/GalN challenge): 100% | survival (BALB/c mice; FIG. 7, 1 ug iv, 4-hour post-LPS/GalN): about 2% | survival (BALB/c mice; FIG. 7, 5 ug iv, 4-hour post-LPS/GalN): 20% | survival (BALB/c mice; FIG. 7, 10 ug iv, 4-hour post-LPS/GalN): 40% | survival (BALB/c mice; FIG. 7, 50 ug iv, 4-hour post-LPS/GalN): 80% | survival (BALB/c mice; FIG. 7, 100 μg mFLINT IP, 4 hours after LPS/GalN): 80% | survival (BALB/c mice; FIG. 7, 100 μg mFLINT iv, 4 hours after LPS/GalN): 100% | effect on survival, ip compared with iv (BALB/c mice; FIG. 7, 100 μg mFLINT, 12 or 2 hours before LPS/GalN): the same | animals survived (BALB/c mice; IP 200 μg mFLINT, 2 hours post-challenge with 3 μg LPS): 100% | animals survived (BALB/c mice; IP 200 μg mFLINT, 6 hours post-challenge with 3 μg LPS): 60% | animals survived (BALB/c mice; IP, 4 hours post-challenge with 3 μg LPS (mFLINT 200 μg)): 73% | binding in dot blot (CD40 L): No appreciable binding
